# According to patent US9611297 (THRASOS THERAPEUTICS, dated 2017):
# Positions of bridges follow the written chain, without caps; N, C: chain ends. Non-standard residues stand in square brackets, D forms with d. No end group written: not given here.
# Assays:
# human uromodulin [1] = molecular target: T1, human uromodulin (human, UniProt P07911 25-614); assay: competition ELISA; biotin-uromodulin + peptide on coated light chain BER (competitor)
# Experimental: (§1) Enzyme-linked immunosorbant assays (ELISA) were performed on the disclosed peptides. Plates were coated with the following light chain clones overnight at 4° C.: 0.05 uM BER (subtype lambda, isolated from SP2/0 cells), 0.2 uM ROC (subtype kappa, isolated from CHO cells), and 0.3 uM BEN (subtype lambda, isolated from CHO cells). The plates were washed and treated with bovine serum albumin (BSA) overnight at 4° C. For peptide plates, 10 nM biotin-uromodulin was mixed with peptide overnight at 4° C.
# human uromodulin [2] = molecular target: T1, human uromodulin; assay: competition ELISA; biotin-uromodulin + peptide on coated light chain ROC (competitor)
# Experimental: as §1
binder,measurement,setting,value
"[dK][dK]CQQS[dY]SIPYTC[dK][dK] (disulfide 3-13 (inferred), synthetic; disulfide bridge formed per general procedure; also called K*K*CQQSY*SIPYTCK*K*) [SEQ ID No. 47]",IC50,human uromodulin [1],32.3 µM
same,IC50,human uromodulin [2],33.5 µM
